Results taken from patent publication US20220306719A1 (JULIUS MAXIMILIANS UNIVERSIT T W RZBURG, published 2022).
Where “and” joins values, the source holds several entries; their conditions need not be identical. Equal entries are not always repeated.

B1: anti-MiH antibody #1 (antibody, V domains shown)
VH: QVQLLESGPGLVAPSQTLSITCTVSGFSFTNYDLHWVRQPPGKGLEWLGVIWAVGSTNYNSALMSRLSISKDNSKSQVFLKMNSLQTDDTAIYYCAREEDYRYGMDYWGQGTSVTVSS
VL: ELVMTQSPLSLPVSLGDQASISCRSSQSLVHSNGNTYLHWYLQKPGQSPKLLIYKVSNRFSGVPDRFSGSGSGTDFTLKISRVEAEDLGVYFCSQSTHVPYTFGGGTKLEIK
B2: anti-MiH antibody #1-ADC (anti-MiH antibody #1 conjugated to an anthracycline-based cytotoxic payload) (antibody, V domains shown)
VH: B1 VH
VL: B1 VL
modifications: conjugated to an anthracycline-based cytotoxic payload (chain and site not stated)

Legend:
Experiment in all cases: cell-based or functional assay
[1] = target: CD19_IgG3_MiH3 CAR (FMC63 scFv, IgG3_MiH3 spacer, CD28tm, 4-1BB/CD3zeta) (human)
[2] = target: CD19_IgG3_MiH4 CAR (FMC63 scFv, IgG3_MiH4 spacer, CD28tm, 4-1BB/CD3zeta) (human)
[3] = target: CD19_IgG3_MiH5 CAR (FMC63 scFv, IgG3_MiH5 spacer, CD28tm, 4-1BB/CD3zeta) (human)
[4] = target: CD20_IgG3_MiH5/MiH3 CAR (advanced IgG3 format, Leu16 scFv)
[5] = target: R11_IgG3_MiH3 CAR (ROR1-specific R11 scFv, IgG3_MiH3 spacer)
[6] = target: R11_IgG3_MiH5/MiH3 CAR (advanced IgG3 format, ROR1-specific R11 scFv)
[7] = target: CD19_IgG3_MiH1 CAR (FMC63 scFv, IgG3_MiH1 spacer, CD28tm, 4-1BB/CD3zeta)
[8] = target: CD19_IgG3_MiH5/MiH1 CAR (advanced IgG3 format: FMC63 scFv with MiH5 linker between the variable domains, MiH1 …)
CD19_IgG3_MiH5/MiH1 CAR (advanced IgG3 format: FMC63 scFv with MiH5 linker between the variable domains, MiH1 …), sequence (chain, as listed by the source): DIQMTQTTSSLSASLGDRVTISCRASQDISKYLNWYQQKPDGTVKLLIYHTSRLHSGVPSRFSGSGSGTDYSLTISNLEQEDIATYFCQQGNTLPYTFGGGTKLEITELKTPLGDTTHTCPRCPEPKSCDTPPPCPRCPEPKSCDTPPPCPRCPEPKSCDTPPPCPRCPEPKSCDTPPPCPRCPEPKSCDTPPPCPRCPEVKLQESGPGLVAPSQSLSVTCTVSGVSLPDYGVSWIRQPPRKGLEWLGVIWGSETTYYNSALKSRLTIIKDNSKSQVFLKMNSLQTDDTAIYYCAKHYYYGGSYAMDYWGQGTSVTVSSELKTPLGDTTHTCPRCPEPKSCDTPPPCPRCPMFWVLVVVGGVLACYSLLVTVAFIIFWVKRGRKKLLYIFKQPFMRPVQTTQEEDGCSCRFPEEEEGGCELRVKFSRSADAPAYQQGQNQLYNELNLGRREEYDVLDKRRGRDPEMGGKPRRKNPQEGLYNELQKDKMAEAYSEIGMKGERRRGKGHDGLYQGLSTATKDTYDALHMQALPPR

CD19_IgG3_MiH5 CAR (FMC63 scFv, IgG3_MiH5 spacer, CD28tm, 4-1BB/CD3zeta) (human), sequence (chain, as listed by the source): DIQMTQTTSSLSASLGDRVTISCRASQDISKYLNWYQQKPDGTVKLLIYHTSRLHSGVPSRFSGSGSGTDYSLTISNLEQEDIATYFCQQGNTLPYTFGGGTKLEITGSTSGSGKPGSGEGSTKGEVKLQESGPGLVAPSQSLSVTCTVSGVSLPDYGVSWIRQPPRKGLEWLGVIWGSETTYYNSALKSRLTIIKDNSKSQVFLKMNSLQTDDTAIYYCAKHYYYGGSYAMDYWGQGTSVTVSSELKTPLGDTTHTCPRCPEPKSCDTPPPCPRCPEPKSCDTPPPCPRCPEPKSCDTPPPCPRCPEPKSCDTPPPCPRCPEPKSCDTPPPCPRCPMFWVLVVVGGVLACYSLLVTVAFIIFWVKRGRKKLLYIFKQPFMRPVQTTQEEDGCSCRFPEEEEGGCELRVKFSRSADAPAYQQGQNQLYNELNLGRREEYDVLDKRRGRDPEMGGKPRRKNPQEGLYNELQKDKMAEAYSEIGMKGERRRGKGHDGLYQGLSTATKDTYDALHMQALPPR
R11_IgG3_MiH3 CAR (ROR1-specific R11 scFv, IgG3_MiH3 spacer), sequence (chain, as listed by the source): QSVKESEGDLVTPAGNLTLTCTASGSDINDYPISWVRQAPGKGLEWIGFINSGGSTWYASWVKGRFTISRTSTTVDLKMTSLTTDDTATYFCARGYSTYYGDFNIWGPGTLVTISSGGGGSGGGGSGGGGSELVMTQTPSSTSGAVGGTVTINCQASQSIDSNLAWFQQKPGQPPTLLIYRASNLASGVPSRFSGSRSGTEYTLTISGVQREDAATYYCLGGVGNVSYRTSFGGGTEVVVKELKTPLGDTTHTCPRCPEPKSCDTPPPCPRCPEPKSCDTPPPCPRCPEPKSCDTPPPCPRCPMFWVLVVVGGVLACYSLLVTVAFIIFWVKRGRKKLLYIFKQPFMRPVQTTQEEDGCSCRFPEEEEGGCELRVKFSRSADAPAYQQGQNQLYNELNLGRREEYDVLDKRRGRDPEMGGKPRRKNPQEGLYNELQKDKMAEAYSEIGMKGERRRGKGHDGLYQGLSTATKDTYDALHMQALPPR
R11_IgG3_MiH5/MiH3 CAR (advanced IgG3 format, ROR1-specific R11 scFv), sequence (chain, as listed by the source): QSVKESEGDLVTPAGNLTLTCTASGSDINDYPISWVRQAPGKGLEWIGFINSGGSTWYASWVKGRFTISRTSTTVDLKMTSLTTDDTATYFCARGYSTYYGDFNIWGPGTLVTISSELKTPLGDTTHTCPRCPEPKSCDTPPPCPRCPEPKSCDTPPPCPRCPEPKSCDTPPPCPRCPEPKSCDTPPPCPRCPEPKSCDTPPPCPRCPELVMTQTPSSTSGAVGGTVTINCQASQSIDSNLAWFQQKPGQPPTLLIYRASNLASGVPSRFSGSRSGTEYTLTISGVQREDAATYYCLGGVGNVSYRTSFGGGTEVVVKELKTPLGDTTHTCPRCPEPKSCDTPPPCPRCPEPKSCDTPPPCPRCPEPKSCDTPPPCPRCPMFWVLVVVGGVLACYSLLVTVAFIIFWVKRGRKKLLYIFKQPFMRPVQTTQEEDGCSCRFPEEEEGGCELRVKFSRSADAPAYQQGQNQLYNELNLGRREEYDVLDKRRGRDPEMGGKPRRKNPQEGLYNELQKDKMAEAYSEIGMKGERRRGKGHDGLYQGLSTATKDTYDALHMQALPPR
CD19_IgG3_MiH4 CAR (FMC63 scFv, IgG3_MiH4 spacer, CD28tm, 4-1BB/CD3zeta) (human), sequence (chain, as listed by the source): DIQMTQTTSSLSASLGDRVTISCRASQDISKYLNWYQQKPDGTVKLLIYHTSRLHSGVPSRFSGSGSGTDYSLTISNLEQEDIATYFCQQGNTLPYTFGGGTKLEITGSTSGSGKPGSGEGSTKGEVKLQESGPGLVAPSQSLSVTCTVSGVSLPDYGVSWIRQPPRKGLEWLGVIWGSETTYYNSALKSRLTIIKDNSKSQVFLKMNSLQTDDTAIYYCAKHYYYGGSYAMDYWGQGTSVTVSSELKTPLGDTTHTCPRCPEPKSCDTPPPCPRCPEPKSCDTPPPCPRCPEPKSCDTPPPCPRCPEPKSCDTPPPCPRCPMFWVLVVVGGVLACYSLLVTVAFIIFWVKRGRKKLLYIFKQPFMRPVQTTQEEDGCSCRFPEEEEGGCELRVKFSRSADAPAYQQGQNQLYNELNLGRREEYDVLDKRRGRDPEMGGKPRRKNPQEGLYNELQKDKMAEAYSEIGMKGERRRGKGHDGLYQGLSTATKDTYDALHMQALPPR
CD19_IgG3_MiH3 CAR (FMC63 scFv, IgG3_MiH3 spacer, CD28tm, 4-1BB/CD3zeta) (human), sequence (chain, as listed by the source): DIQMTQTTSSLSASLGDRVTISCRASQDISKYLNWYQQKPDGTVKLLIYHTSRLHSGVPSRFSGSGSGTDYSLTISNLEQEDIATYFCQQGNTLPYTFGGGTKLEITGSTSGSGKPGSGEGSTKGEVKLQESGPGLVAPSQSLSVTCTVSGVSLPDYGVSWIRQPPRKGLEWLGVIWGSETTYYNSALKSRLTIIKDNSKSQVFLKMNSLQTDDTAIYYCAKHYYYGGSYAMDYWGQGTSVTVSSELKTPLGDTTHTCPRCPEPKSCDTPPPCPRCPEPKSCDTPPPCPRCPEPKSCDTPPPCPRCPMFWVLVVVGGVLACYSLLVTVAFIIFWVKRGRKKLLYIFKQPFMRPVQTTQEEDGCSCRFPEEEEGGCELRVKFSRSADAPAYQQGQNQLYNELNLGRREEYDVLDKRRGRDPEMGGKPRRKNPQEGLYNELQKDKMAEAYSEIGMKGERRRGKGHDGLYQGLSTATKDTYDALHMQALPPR
CD20_IgG3_MiH5/MiH3 CAR (advanced IgG3 format, Leu16 scFv), sequence (chain, as listed by the source): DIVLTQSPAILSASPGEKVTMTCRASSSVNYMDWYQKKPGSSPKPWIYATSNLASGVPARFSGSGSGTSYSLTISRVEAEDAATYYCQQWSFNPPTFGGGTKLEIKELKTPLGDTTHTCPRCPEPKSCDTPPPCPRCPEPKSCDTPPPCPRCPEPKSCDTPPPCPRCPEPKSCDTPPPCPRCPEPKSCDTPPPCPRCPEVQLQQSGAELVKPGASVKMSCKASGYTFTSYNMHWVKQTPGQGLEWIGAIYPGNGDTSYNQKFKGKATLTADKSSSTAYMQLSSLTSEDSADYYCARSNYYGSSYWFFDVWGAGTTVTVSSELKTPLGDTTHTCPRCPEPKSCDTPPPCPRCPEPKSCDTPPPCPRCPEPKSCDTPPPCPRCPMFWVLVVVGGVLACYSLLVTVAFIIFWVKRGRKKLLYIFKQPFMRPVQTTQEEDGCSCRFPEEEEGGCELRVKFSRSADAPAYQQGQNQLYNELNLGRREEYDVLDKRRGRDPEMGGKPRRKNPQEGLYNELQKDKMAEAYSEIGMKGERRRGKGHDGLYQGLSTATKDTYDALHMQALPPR
CD19_IgG3_MiH1 CAR (FMC63 scFv, IgG3_MiH1 spacer, CD28tm, 4-1BB/CD3zeta), sequence (chain, as listed by the source): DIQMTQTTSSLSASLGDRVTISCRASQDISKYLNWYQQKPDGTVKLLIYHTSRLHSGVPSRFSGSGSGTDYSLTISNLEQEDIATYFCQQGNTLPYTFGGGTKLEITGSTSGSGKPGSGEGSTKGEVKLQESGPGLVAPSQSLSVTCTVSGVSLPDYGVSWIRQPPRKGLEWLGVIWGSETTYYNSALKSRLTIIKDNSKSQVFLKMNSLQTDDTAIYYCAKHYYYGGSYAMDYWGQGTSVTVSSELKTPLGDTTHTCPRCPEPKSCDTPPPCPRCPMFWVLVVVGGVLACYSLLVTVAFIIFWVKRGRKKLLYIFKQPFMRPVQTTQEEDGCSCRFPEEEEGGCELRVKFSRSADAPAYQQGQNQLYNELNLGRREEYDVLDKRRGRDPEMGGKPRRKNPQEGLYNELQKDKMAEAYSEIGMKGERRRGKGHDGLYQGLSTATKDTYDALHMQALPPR

| Binder | increase in CAR T cell numbers after 7 days of stimulation on plate-bound antibody [1] [fold] | expansion of CAR T cells after one week on plate-bound antibody [2] [fold] | expansion of CAR T cells after one week on plate-bound antibody [3] [fold] | ADC concentration with the told effect on viable CAR T cells (72 h) [4] | ADC concentration with the told effect on viable CAR T cells (72 h) [5] | ADC concentration with the told effect on viable CAR T cells (72 h) [6] | ADC concentration with the told effect on viable CAR T cells (72 h) [7] [µg/mL] | ADC concentration with the told effect on viable CAR T cells (72 h) [1] [µg/mL] | ADC concentration with the told effect on viable CAR T cells (72 h) [2] [µg/mL] | ADC concentration with the told effect on viable CAR T cells (72 h) [3] | ADC concentration with the told effect on viable CAR T cells (72 h) [8] [µg/mL] |
| --- | --- | --- | --- | --- | --- | --- | --- | --- | --- | --- | --- |
| B1 | > 2 | 4 | 4 | – | – | – | – | – | – | – | – |
| B2 | – | – | – | 500 ng/mL and 5000 ng/mL | 500 ng/mL and 5000 ng/mL | 500 ng/mL and 5000 ng/mL | 10 | 5 | 5 | 50 ng/mL and 5000 ng/mL | 5 |
